One assay has as its target T1, HLA-A03.01 (human).
T1 construct: Purified class I MHC
Briefly: competition with radiolabeled reference peptide, purified MHC I. On the procedure: (§1) Peptides were incubated at varying concentrations with these complexes for 2 days, and the amount of remaining radiolabeled peptide bound to […] was measured using size exclusion gel-filtration.

Assay [1] addresses T2, HLA-A02.01 (human).
T2 construct: Purified class I MHC
Briefly: pMHC-I dissociation half-life, 125I-b2m. The protocol: Briefly, synthetic genes encoding biotinylated MHC-I heavy and light chains are expressed in E. coli and purified from inclusion bodies using standard methods. […] These reactions are carried out in streptavidin coated microplates to bind the biotinylated MHC-I heavy chains to the surface and allow measurement of radiolabeled light chain to monitor complex formation. Dissociation is initiated by addition of higher concentrations of unlabeled light-chain and incubation at 37° C. Stability is defined as the length of time in hours it takes for half of the complexes to dissociate, as measured by scintillation counts.

In assay [2] the target is T2, HLA-A02.01. As to the kind of experiment: competition with radiolabeled reference peptide, purified MHC I. The protocol: as §1

B1: KISNWSLKKV (peptide)
peptide: KISNWSLKKV
notes: also called SMAP1(-1)
In the case of B1, the IC50 (as a rule, the concentration needed to halve the response being measured) with HLA-A03.01 was 0.115 µM.

B2: FVMSDTTYK (peptide)
peptide: FVMSDTTYK
notes: also called TTK(-1)
For the molecule B2, the IC50 in the assay with HLA-A03.01 amounted to 0.0669 µM. Compared with the last molecule, the IC50 is about 1.7-fold lower.

B3: KMRKKYAQK (peptide)
peptide: KMRKKYAQK
notes: also called THAP5(-1)
B3 displayed an IC50 with HLA-A03.01 of 0.0057 µM.

B4: KSKKKETFKK (peptide)
peptide: KSKKKETFKK
notes: also called SEC63 (+1)
B4: the IC50 in the assay with HLA-A03.01 came to 0.0396 µM.

B5: GLLAFWDSQV (peptide)
peptide: GLLAFWDSQV
notes: also called TP53, AAVG
On to B5, for which the “Stability (T1/2 (h))” value with HLA-A02.01 [1] is 14.2 h. In the assay with HLA-A02.01 [2], this molecule registered an IC50 of 0.01 µM.

B6: RVNTAWKTK (peptide)
peptide: RVNTAWKTK
notes: also called TFAM(+1)
For B6, the IC50 with HLA-A03.01 is 0.0086 µM.

B7: ITTVKATETK (peptide)
peptide: ITTVKATETK
notes: also called SEC63 (+1)
B7 gave an IC50 with HLA-A03.01 of 1.25 µM.

B8: MLLRLNLRK (peptide)
peptide: MLLRLNLRK
notes: also called SEC31A(-1)
For B8, the half-inhibitory concentration (IC50) in the assay with HLA-A03.01 amounted to 0.0013 µM.

B9: TYTCAITTVK (peptide)
peptide: TYTCAITTVK
notes: also called SEC63 (+1)
In turn, B9 had an IC50 in the assay with HLA-A03.01 of 2.36 µM.

B10: SLKKVPALKK (peptide)
peptide: SLKKVPALKK
notes: also called SMAP1(-1)
In the assay with HLA-A03.01, B10 yielded an IC50 of 0.0096 µM. This IC50 is about 250-fold lower than that of the molecule before.

B11: RKISNWSLKK (peptide)
peptide: RKISNWSLKK
notes: also called SMAP1(-1)
As to B11, the IC50 with HLA-A03.01 turned out to be 0.131 µM.

B12: LFVMSDTTYK (peptide)
peptide: LFVMSDTTYK
notes: also called TTK(-1)
Consider B12, for which, in the assay with HLA-A03.01, the IC50 turned out to be 0.749 µM.

B13: KLMLLRLNLR (peptide)
peptide: KLMLLRLNLR
notes: also called SEC31A(-1)
Turning to B13, the IC50 with HLA-A03.01 stood at 0.0484 µM. This IC50 is about 15-fold lower than that of the molecule before.

B14: AMTTSSSQKN (peptide)
peptide: AMTTSSSQKN
notes: also called TGFBR2(-1)
In the assay with HLA-A03.01, B14 returned a 50% inhibitory concentration (IC50) of 2.34 µM.

B15: VVPCEPPEV (peptide)
peptide: VVPCEPPEV
notes: also called TP53, Y220C
For the molecule B15, the “Stability (T1/2 (h))” value in the assay with HLA-A02.01 [1] turned out to be 0.9 h.

B16: RVNTAWKTKK (peptide)
peptide: RVNTAWKTKK
notes: also called TFAM(+1)
Regarding B16, in the assay with HLA-A03.01, the IC50 was 0.0023 µM. That is a single-digit nanomolar value.

B17: WSLKKVPALK (peptide)
peptide: WSLKKVPALK
notes: also called SMAP1(-1)
In the case of B17, the IC50 with HLA-A03.01 worked out at 0.0949 µM.

B18: LMLLRLNLRK (peptide)
peptide: LMLLRLNLRK
notes: also called SEC31A(-1)
In the assay with HLA-A03.01, B18 came in with an IC50 of 0.006 µM. Against the preceding molecule, the IC50 is about 16-fold lower.

B19: YLTKWPKFFL (peptide)
peptide: YLTKWPKFFL
notes: also called XPOT(-1)
In the case of B19, the half-inhibitory concentration (IC50) with HLA-A02.01 [2] is 0.0429 µM.

B20: KSRQNHLQLK (peptide)
peptide: KSRQNHLQLK
notes: also called SMAP1(-1)
Take B20: in the assay with HLA-A03.01, the IC50 stood at 0.0047 µM.

B21: ALNSEALSV (peptide)
peptide: ALNSEALSV
notes: also called TMPRSS2: ERG
Take B21: the “Stability (T1/2 (h))” value in the assay with HLA-A02.01 [1] amounted to 9.1 h. Besides, in the assay with HLA-A02.01 [2], the IC50 stood at 0.014 µM.

B22: KRVNTAWKTK (peptide)
peptide: KRVNTAWKTK
notes: also called TFAM(+1)
In the assay with HLA-A03.01, B22 showed an IC50 of 0.332 µM.

B23: GLVDEQQEV (peptide)
peptide: GLVDEQQEV
notes: also called SF3B1, K700E
Turning to B23, the “Stability (T1/2 (h))” value in the assay with HLA-A02.01 [1] came to 7.4 h. In the assay with HLA-A02.01 [2], this molecule gave an IC50 of 0.044 µM.

B24: HLQLKSCRRK (peptide)
peptide: HLQLKSCRRK
notes: also called SMAP1(-1)
For B24, the IC50 with HLA-A03.01 came out at 0.0969 µM. That is a double-digit nanomolar value.

B25: KTFEKKGEK (peptide)
peptide: KTFEKKGEK
notes: also called TTK(-1)
B25: in the assay with HLA-A03.01, the half-maximal inhibitory concentration (IC50) worked out at 0.0322 µM.

B26: ALNSEALSVV (peptide)
peptide: ALNSEALSVV
notes: also called TMPRSS2: ERG
In the case of B26, the “Stability (T1/2 (h))” value with HLA-A02.01 [1] worked out at 2.9 h.

B27: KSKKKETFK (peptide)
peptide: KSKKKETFK
notes: also called SEC63 (+1)
On to B27, for which the IC50 in the assay with HLA-A03.01 was determined as 0.0743 µM.

(Values after US20220282217A1 (BIONTECH US, published 2022).)
